Reference: publication doi:10.1101/2022.05.13.491168

How the values were obtained:
[1] = target: CvkR (Cas V-K repressor, Alr3614) of Anabaena (Nostoc) sp. PCC 7120 (Anabaena (Nostoc) sp. PCC 7120); experiment: SEC
CvkR (Alr3614) = CvkR (Alr3614) (Anabaena (Nostoc) sp. PCC 7120, UniProt A0ACD6B984 19-168); experiment: EMSA

## CvkR (Cas V-K repressor, Alr3614) of Anabaena (Nostoc) sp. PCC 7120 (natural protein)
[1]
  stoichiometry N: 2

B1: Pcas12k (P82) (dsDNA)
DNA 1: AAGAAACATCCTATAGAAGCATCTTCTAAAACACATTAGTGCTTTGTATAACATTATGTGTTTTGTATGGTATTTTATTTTT
DNA 2: AAAAATAAAATACCATACAAAACACATAATGTTATACAAAGCACTAATGTGTTTTAGAAGATGCTTCTATAGGATGTTTCTT
CvkR (Alr3614)
  binding result: binds
